± gives the standard deviation of the averaged measurements.
B1: library; a variant is named by its letters at N, in order (parent)
chain: AATGTTGTTGATGCAACCATAAAGTGATATTTAATAATTATTTATAATCAGCAACTTAACCACAAAACAACCATATATTGATATNTCACAAAACAACCATAANTTGATATTTTTGTGAATCGAGTATTTCAGCAAAACTACTGCAGTAAGAA

Experiments:
[1] = variants of: B1; assay: relative integration efficiency (T-LR orientation) vs wild-type transposon end (log2 (normalized fold change)); transposon end mutated: left end; higher = more efficient transposition; conditions: with VchCAST RNA-guided transposition machinery (E. coli BL21(DE3) host, lacZ target)
Method in brief: (§1)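 Barcoded pools of 1549 left-end or 1849 right-end transposon variants were cloned into a pUC57 mini-transposon donor. Each pool was co-transformed with a T7-driven effector plasmid (CRISPR array, tniQ-cas8-cas7-cas6, tnsA-tnsB-tnsC) into E. coli BL21(DE3) and plated with 0.1 mM IPTG at 37°C for 18 h. Input plasmids and genomic integration junctions were PCR-amplified and Illumina-sequenced, with two biological output replicates and four wild-type barcodes as reference. Relative integration efficiency is output/input barcode abundance fold change, normalised to wild-type barcodes and log-transformed.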

[2] = variants of: B1; assay: relative integration efficiency (T-RL orientation) vs wild-type transposon end (log2 (normalized fold change)); transposon end mutated: left end; higher = more efficient transposition; conditions: with VchCAST RNA-guided transposition machinery (E. coli BL21(DE3) host, lacZ target)
Method in brief: as §1

CG T32A
relative integration efficiency (log2) [1]: 0.415 ± 0.98 | relative integration efficiency (log2) [2]: 0.178 ± 0.032

CG T32A A33T
relative integration efficiency (log2) [1]: 0.105 ± 0.075 | relative integration efficiency (log2) [2]: -0.145 ± 0.16

CG T32A A33T A34T T35A
relative integration efficiency (log2) [1]: 0.141 ± 0.33 | relative integration efficiency (log2) [2]: -0.0669 ± 0.14

CG T32A A33T T86A C87G T112A T113A
relative integration efficiency (log2) [1]: -0.463 ± 0.11 | relative integration efficiency (log2) [2]: -0.48 ± 0.21

CG T32A A77C T86G
relative integration efficiency (log2) [1]: -0.351 ± 0.47 | relative integration efficiency (log2) [2]: -0.197 ± 0.12

CG T32A T86A T112A
relative integration efficiency (log2) [1]: 0.255 ± 0.42 | relative integration efficiency (log2) [2]: -0.0963 ± 0.053

CG T32C
relative integration efficiency (log2) [1]: 0.089 ± 0.39 | relative integration efficiency (log2) [2]: -0.0923 ± 0.12

CG T32G
relative integration efficiency (log2) [1]: -0.347 ± 0.098 | relative integration efficiency (log2) [2]: -0.146 ± 0.14

CG T32G A33C
relative integration efficiency (log2) [1]: 0.439 ± 0.1 | relative integration efficiency (log2) [2]: 0.352 ± 0.14

CG T32G A33C A34C T35G
relative integration efficiency (log2) [1]: 0.074 ± 0.25 | relative integration efficiency (log2) [2]: -0.364 ± 0.079

CG T32G A33C T86G C87A T112G T113G
relative integration efficiency (log2) [1]: -0.849 ± 0.54 | relative integration efficiency (log2) [2]: -0.843 ± 0.24

CG T32G T86G T112G
relative integration efficiency (log2) [1]: -0.809 ± 0.9 | relative integration efficiency (log2) [2]: -0.686 ± 0.19

CG T35A
relative integration efficiency (log2) [1]: 0.179 ± 0.22 | relative integration efficiency (log2) [2]: 0.0694 ± 0.048

CG T35A A36T
relative integration efficiency (log2) [1]: 0.24 ± 0.31 | relative integration efficiency (log2) [2]: 0.1527 ± 0.00087

CG T35A A36T A37T T38A
relative integration efficiency (log2) [1]: 0.322 ± 0.34 | relative integration efficiency (log2) [2]: 0.354 ± 0.019

CG T35C
relative integration efficiency (log2) [1]: -0.112 ± 0.24 | relative integration efficiency (log2) [2]: -0.0902 ± 0.18

CG T35G
relative integration efficiency (log2) [1]: 0.136 ± 0.33 | relative integration efficiency (log2) [2]: 0.163 ± 0.11

CG T35G A36C
relative integration efficiency (log2) [1]: -0.467 ± 0.11 | relative integration efficiency (log2) [2]: -0.318 ± 0.071

CG T35G A36C A37C T38G
relative integration efficiency (log2) [1]: 0.209 ± 0.74 | relative integration efficiency (log2) [2]: 0.203 ± 0.092

CG T38A
relative integration efficiency (log2) [1]: 0.0433 ± 0.41 | relative integration efficiency (log2) [2]: -0.123 ± 0.054

CG T38A T39A
relative integration efficiency (log2) [1]: 0.516 ± 0.23 | relative integration efficiency (log2) [2]: 0.474 ± 0.18

CG T38A T39A A40T T41A
relative integration efficiency (log2) [1]: -0.9 ± 1.3 | relative integration efficiency (log2) [2]: 0.168 ± 0.1

CG T38A T42A T45A A47T C49A G51T C52T A54T C55T T56A T57A A59T
relative integration efficiency (log2) [1]: -2.39 ± 1.1 | relative integration efficiency (log2) [2]: -2.37 ± 0.87

CG T38C
relative integration efficiency (log2) [1]: 0.236 ± 0.068 | relative integration efficiency (log2) [2]: -0.0081 ± 0.1

CG T38G
relative integration efficiency (log2) [1]: 0.138 ± 0.0017 | relative integration efficiency (log2) [2]: -0.123 ± 0.065

CG T38G T39G
relative integration efficiency (log2) [1]: 0.139 ± 0.043 | relative integration efficiency (log2) [2]: -0.161 ± 0.039

CG T38G T39G A40C T41G
relative integration efficiency (log2) [1]: 0.212 ± 0.16 | relative integration efficiency (log2) [2]: -0.193 ± 0.16

CG T39A
relative integration efficiency (log2) [1]: 0.147 ± 0.58 | relative integration efficiency (log2) [2]: 0.0624 ± 0.071

CG T39A A40T
relative integration efficiency (log2) [1]: 0.255 ± 0.22 | relative integration efficiency (log2) [2]: 0.244 ± 0.039

CG T39A A40T T41A T42A
relative integration efficiency (log2) [1]: 0.453 ± 0.17 | relative integration efficiency (log2) [2]: 0.475 ± 0.019

CG T39C
relative integration efficiency (log2) [1]: 0.161 ± 0.47 | relative integration efficiency (log2) [2]: 0.0645 ± 0.011

CG T39C A40T T41G T43G A46T A47G C49T G51T A54C C55A
relative integration efficiency (log2) [1]: -4.29 ± 1.2 | relative integration efficiency (log2) [2]: -2.86 ± 0.84

CG T39G
relative integration efficiency (log2) [1]: 0.304 ± 0.45 | relative integration efficiency (log2) [2]: 0.00997 ± 0.055

CG T39G A40C
relative integration efficiency (log2) [1]: -0.0204 ± 0.26 | relative integration efficiency (log2) [2]: -0.535 ± 0.23

CG T39G A40C T41G T42G
relative integration efficiency (log2) [1]: 0.3517 ± 0.00068 | relative integration efficiency (log2) [2]: 0.179 ± 0.11

CG T39G A40C T41G T43A A44C A47G C49T G51A A53T C55G A58C A59G C60A
relative integration efficiency (log2) [1]: -5.96 ± 2.7 | relative integration efficiency (log2) [2]: -4.12 ± 1.1

CG T41A
relative integration efficiency (log2) [1]: -0.651 ± 0.73 | relative integration efficiency (log2) [2]: 0.0865 ± 0.047

CG T41A A44G A46T A50C A53T A54C C55A T56C T57A A59T C60T A62C
relative integration efficiency (log2) [1]: -2.59 ± 1.4 | relative integration efficiency (log2) [2]: -3.65 ± 0.63

CG T41A T42A
relative integration efficiency (log2) [1]: 0.775 ± 0.0053 | relative integration efficiency (log2) [2]: 0.864 ± 0.047

CG T41A T42A A44G A46G T48G A50G G51A C52G A53T C55A T56C T57A A59C
relative integration efficiency (log2) [1]: 0.615 ± 1 | relative integration efficiency (log2) [2]: -4.14 ± 1.1

CG T41A T42A T43A A44T
relative integration efficiency (log2) [1]: 0.249 ± 0.14 | relative integration efficiency (log2) [2]: 0.195 ± 0.17

CG T41C
relative integration efficiency (log2) [1]: 1.29 ± 0.16 | relative integration efficiency (log2) [2]: 0.304 ± 0.26

CG T41G
relative integration efficiency (log2) [1]: 0.12 ± 0.36 | relative integration efficiency (log2) [2]: -0.128 ± 0.018

CG T41G T42G
relative integration efficiency (log2) [1]: 1.22 ± 0.23 | relative integration efficiency (log2) [2]: 0.0624 ± 0.23

CG T41G T42G T43G A44C
relative integration efficiency (log2) [1]: 0.146 ± 0.074 | relative integration efficiency (log2) [2]: -0.195 ± 0.099

CG T42A
relative integration efficiency (log2) [1]: 0.162 ± 0.27 | relative integration efficiency (log2) [2]: 0.471 ± 0.051

CG T42A T43A
relative integration efficiency (log2) [1]: 0.176 ± 0.54 | relative integration efficiency (log2) [2]: -0.0273 ± 0.049

CG T42A T43A A44T T45A
relative integration efficiency (log2) [1]: 0.262 ± 0.049 | relative integration efficiency (log2) [2]: 0.271 ± 0.16

CG T42C
relative integration efficiency (log2) [1]: 0.252 ± 0.45 | relative integration efficiency (log2) [2]: 0.37 ± 0.039

CG T42G
relative integration efficiency (log2) [1]: 0.0763 ± 0.34 | relative integration efficiency (log2) [2]: -0.115 ± 0.2

CG T42G T43G
relative integration efficiency (log2) [1]: 0.178 ± 0.27 | relative integration efficiency (log2) [2]: -0.123 ± 0.14

CG T42G T43G A44C T45G
relative integration efficiency (log2) [1]: 0.391 ± 0.16 | relative integration efficiency (log2) [2]: -0.108 ± 0.12

CG T43A
relative integration efficiency (log2) [1]: 0.341 ± 0.042 | relative integration efficiency (log2) [2]: 0.0102 ± 0.024

CG T43A A44T
relative integration efficiency (log2) [1]: 0.162 ± 0.35 | relative integration efficiency (log2) [2]: -0.0354 ± 0.012

CG T43A A44T T45A A46T
relative integration efficiency (log2) [1]: -1.06 ± 1.4 | relative integration efficiency (log2) [2]: 0.138 ± 0.031

CG T43C
relative integration efficiency (log2) [1]: -0.00723 ± 0.047 | relative integration efficiency (log2) [2]: -0.241 ± 0.11

CG T43G
relative integration efficiency (log2) [1]: -0.00931 ± 0.27 | relative integration efficiency (log2) [2]: -0.28 ± 0.043

CG T43G A44C
relative integration efficiency (log2) [1]: 0.129 ± 0.046 | relative integration efficiency (log2) [2]: -0.0854 ± 0.05

Source: the supplement of paper PMC10201428
